This is an account of results in PMC7900238, “A meet-up of two second messengers: the c-di-AMP receptor DarB controls (p)ppGpp synthesis in Bacillus subtilis” (Nature Communications, 2021).

For one data set, the target named is DarB (Bacillus subtilis, UniProt O31698). In words: biochemical.
A further data set addresses T1, Rel (Bacillus subtilis, UniProt O54408).
T1 construct: gene relA; full-length (734 residues), 10xHis-SUMO fusion from plasmid pVHP186 in E. coli Rosetta(DE3), SUMO tag cleaved, RNA-free
In words: hydrolase assay, GTP formation by LC-MS/MS. Type of data set: biochemical. The note with it: 1 mM pppGpp, 1 mM MnCl2, 5 mM Mg(OAc)2, HEPES:Polymix pH 7.5, 37 °C; without DarB.

In data set [1] the target is T2, Rel^NTD, purified, as used in SEC-MALS and ITC (B. subtilis 168, UniProt O54408 1-391).
T2 construct: Rel, Bacillus subtilis 168, aa 1-391 (HYD and SYN domains); the only expression plasmid named is pGP3350 (Strep-tagged); The SEC-MALS methods speak of 'purified tag-free proteins', but no removal of the Strep tag from Rel^NTD is described; Monomer by SEC-MALS; source: E. coli Rosetta(DE3), purified (StrepTactin)
The data set can be described thus: ITC; 10 µM Rel^NTD in the cell, 100 µM DarB in the syringe, 50 mM Tris-HCl pH 8.3, 200 mM NaCl, 20 °C. The note with it: both partners purified. In general terms: In ITC the heat of successive injections is recorded.

Data set [2] deals with the molecule itself. In words: SEC-MALS; Rel^NTD and DarB alone or pre-mixed 1:1 (~1 mg/ml each) in 1× ZAP buffer (50 mM Tris-HCl, 200 mM NaCl, pH 7.5), Superdex 200 10/300GL; fractions on SDS-PAGE. (In general: SEC sorts molecules by how far they enter the pores of the column.)
The target of data set [3] is Rel, full length, purified, SUMO tag removed (B. subtilis, UniProt O54408 1-734). The data set can be described thus: cell-based or functional assay.
Chain of Rel, full length, purified, SUMO tag removed (O54408 whole entry): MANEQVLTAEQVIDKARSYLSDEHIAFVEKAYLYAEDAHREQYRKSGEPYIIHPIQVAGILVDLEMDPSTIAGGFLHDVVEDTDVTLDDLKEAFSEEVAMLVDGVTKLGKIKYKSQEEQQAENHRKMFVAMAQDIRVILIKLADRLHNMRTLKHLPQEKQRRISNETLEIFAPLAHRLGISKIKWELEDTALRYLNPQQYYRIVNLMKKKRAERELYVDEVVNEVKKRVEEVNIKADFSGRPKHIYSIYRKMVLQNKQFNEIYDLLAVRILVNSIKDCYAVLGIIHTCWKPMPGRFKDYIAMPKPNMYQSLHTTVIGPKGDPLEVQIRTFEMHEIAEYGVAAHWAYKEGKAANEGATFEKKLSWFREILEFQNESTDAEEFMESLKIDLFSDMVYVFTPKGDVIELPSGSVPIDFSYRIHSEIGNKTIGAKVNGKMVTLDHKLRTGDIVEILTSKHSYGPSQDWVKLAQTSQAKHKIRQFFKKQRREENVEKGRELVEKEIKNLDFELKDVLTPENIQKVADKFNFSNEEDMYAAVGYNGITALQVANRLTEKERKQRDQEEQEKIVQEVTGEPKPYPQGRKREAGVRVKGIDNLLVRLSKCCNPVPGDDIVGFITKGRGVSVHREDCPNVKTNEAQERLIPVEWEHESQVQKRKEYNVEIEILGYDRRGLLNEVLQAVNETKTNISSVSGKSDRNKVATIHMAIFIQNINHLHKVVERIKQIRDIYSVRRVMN

T2 sequence (O54408 1-391): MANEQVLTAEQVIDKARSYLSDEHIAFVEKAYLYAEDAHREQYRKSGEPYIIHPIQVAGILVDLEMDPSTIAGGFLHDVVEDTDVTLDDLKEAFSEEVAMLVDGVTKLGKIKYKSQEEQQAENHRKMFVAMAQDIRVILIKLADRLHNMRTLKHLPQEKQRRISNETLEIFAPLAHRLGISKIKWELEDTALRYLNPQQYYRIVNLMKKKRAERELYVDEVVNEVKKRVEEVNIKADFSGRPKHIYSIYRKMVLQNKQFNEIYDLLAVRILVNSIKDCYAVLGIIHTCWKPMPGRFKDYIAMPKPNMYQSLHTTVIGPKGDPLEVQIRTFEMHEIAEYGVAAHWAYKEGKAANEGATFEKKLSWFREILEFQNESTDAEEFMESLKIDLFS
T1 sequence (O54408 whole entry, the tested form may be a part): as the sequence (O54408 whole entry) above
Chain of DarB (O31698 whole entry): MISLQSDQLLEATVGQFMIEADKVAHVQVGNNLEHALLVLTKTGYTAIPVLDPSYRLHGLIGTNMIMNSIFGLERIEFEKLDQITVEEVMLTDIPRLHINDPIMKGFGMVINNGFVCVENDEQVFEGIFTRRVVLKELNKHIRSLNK

A word on the Kd: it is the free concentration of one partner at which half of the binding sites on the other are occupied at equilibrium, for simple one-to-one binding. A high value points to a looser complex. In turn, `Nc1ncnc2c1ncn2[C@@H]1O[C@@H]2COP(=O)(O)O[C@H]3[C@@H](O)[C@H](n4cnc5c(N)ncnc54)O[C@@H]3COP(=O)(O)O[C@H]2[C@H]1O` [c-di-AMP] displayed a Kd at DarB of about 45 nM.
Turning to `Nc1nc2c(ncn2[C@@H]2O[C@H](COP(=O)(O)OP(=O)(O)OP(=O)(O)O)[C@@H](OP(=O)(O)OP(=O)(O)O)[C@H]2O)c(=O)[nH]1` [pppGpp], the “hydrolase assay, GTP formation by LC-MS/MS” value on Rel was “we determined the formation of GTP resulting from the hydrolysis of pppGpp”.

B1: DarB, purified, SUMO tag removed (natural protein, B. subtilis 168)
chain: ISLQSDQLLEATVGQFMIEADKVAHVQVGNNLEHALLVLTKTGYTAIPVLDPSYRLHGLIGTNMIMNSIFGLERIEFEKLDQITVEEVMLTDIPRLHINDPIMKGFGMVINNGFVCVENDEQVFEGIFTRRVVLKELNKHIRSLNK
notes: darB amplified from chromosomal DNA and cloned into pET-SUMO (pGP2972); Dimer by SEC-MALS; Apo form as made in E. coli; in some experiments preincubated or saturated with c-di-AMP (written as a condition of the assay); also called apo-DarB; c-di-AMP receptor DarB; source: E. coli Rosetta(DE3), purified (Ni-NTA; SUMO tag removed with SUMO protease)
The stoichiometry N is the number of molecules, sites or subunits per partner or assembly. Take B1: in data set [1], binding was characterised by a dissociation constant (Kd) of 650 nM and the “stoichiometry N” value stood at 1. For the same molecule, the “stoichiometry N” value in data set [2] came out at 2. Also, in data set [3], the “pppGpp hydrolase activity of purified Rel (0.5 µM) with DarB (5 µM), against Rel alone (8.7 pmol of GTP per pmol of Rel per minute)” value stood at 6 fold and the “pppGpp synthetase activity of purified Rel (0.5 µM) with DarB (5 µM), against Rel alone (1.1 pmol pppGpp per pmol of Rel per minute)” value was determined as 3 fold.
